Test results from the supplement of paper PMC10266784.

B1: library; numbered along this chain (parent)
chain: MAAAAAAAAEQQSSNGPVKKSMREKAVERRSVNKEHNSNFKAGYIPIDEDRLHKTGLRGRKGNLAICVIILLFILAVINLIITLVIWAVIRIGPNGCDSMEFHESGLLRFKQVSDMGVIHPLYKSTVGGRRNENLVITGNNQPIVFQQGTTKLSVENNKTSITSDIGMQFFDPRTQNILFSTDYETHEFHLPSGVKSLNVQKASTERITSNATSDLNIKVDGRAIVRGNEGVFIMGKTIEFHMGGNMELKAENSIILNGSVMVSTTRLPSSSSGDQLGSGDWVRYKLCMCADGTLFKVQVTSQNMGCQISDNPCGNTH

Variants of: B1
Test: SGCB cell-surface expression functional score (HA stain, bin4 vs bin1, normalised to synonymous) (log10 ratio); higher = more cell-surface SGCB (functional)
Method: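 Deep mutational scan of full-length human SGCB (YFP-SGCB-HA, NNN codon sublibraries A-F) delivered by lentivirus at low MOI into ADG-HEK293 cells stably expressing SGCA, SGCD and SGCG. YFP-positive cells were stained for surface HA on unpermeabilized cells and FACS-sorted into bins. The functional score is log10(frequency in high bin 4 / frequency in low bin 1), normalised per chunk so that synonymous variants have mean 0 and SD 0.5. Scores are the median over codons and over duplicate biological replicates; scores below -0.5 are called non-functional. Scale: negative means deleterious.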

SGCB cell-surface expression functional score (log10), by site and new letter:
T83: W -0.91, Y -0.43, V -0.11, L 0.1, Q 0.46, K -0.33, S -0.2, F -0.77, D -0.02, P -0.3, M 0.14, A -0.17, G 0.04, R -0.49, I 0.05, H -0.43, C -0.51, N 0.2, E -0.18
L84: H -0.4, Q 0.78, G 0.24, E 0.26, W 0.4, V 0.24, T 0.17, A 0, P 0.02, K 0.18, R 0.08, M 0.1, S 0.09, N -0.44, Y -0.41, I 0.01, C -0.21, D -0.05, F -0.57
V89: A -0.23, Y -1.29, P -0.88, N -2.05, F -1.21, E -0.95, W -1.16, T -0.3, Q -1.44, D -2.32, L -1.13, I -0.52, M -0.96, R -0.63, H -1.8, K 0.02, G -0.36, C 0, S -0.41
I81: A 0.13, F -0.08, G 0, D 0.12, L 0.1, V -0.03, P 0.12, W -0.38, Y -0.45, T -0.23, R -0.73, E 0.31, Q 0.03, S -0.14, M -0.08, K -0.06, C -0.06, N 0.04, H 0.45
I82: A 0.03, F 0.01, D -0.85, N -0.69, S -0.18, H 0.12, Q 0.28, P 0.22, K 0.1, V 0.04, C 0.11, T -0.05, L 0.07, G -0.2, R -0.66, Y -0.15, E -0.49, W -1.15, M -0.24
V85: R -0.06, Q 0.08, K 0.01, M 0.58, H -0.11, T -0.05, A 0.3, F -0.43, L 0.24, W -0.09, D -0.21, G 0.11, S -0.2, C -0.21, I -0.18, P -1.14, N -0.37, E 0.35, Y -0.17
I74: G 0.2, Y -0.07, C 0.07, T -0.02, L 0.44, D -0.26, Q 0, R -1.42, E 0.75, N 0.04, S -0.05, V -0.01, H 0.05, P -0.18, M -0.6, F -0.25, W 0.64, A 0, K 0.07
V77: I -0.12, L -0.16, F 0.04, G -0.14, S -0.06, A -0.12, R -0.37, W -0.2, C -0.11, D 0.07, N -0.21, E -0.04, Q 0.33, H -0.48, M 0.2, T -0.07, K -0.21, Y -0.22, P -0.24
L80: I -0.01, A 0.19, F -0.22, D -0.2, P -0.3, M 0.32, N 0.12, Y 0.27, S 0.2, K -0.07, W 1.23, C 0.66, T 0.42, V 0.26, E -0.1, G 0.19, R -0.03, H -0.14, Q -0.24
A88: V 0.25, D 0.41, Q 0.15, W -0.36, C -0.27, R -0.43, I 0.06, G 0.19, F 0.14, T 0.17, S 0.49, H 0.49, N -0.37, K 0.62, M -0.05, P -1.07, L 0.14, Y 0.01, E -0.1
I78: W 0.33, K 0.05, F -0.56, A 0.15, H 0.1, G -0.04, D -0.1, L -0.05, Y -0.68, V 0, C -0.19, S -0.22, Q -0.47, E -0.45, R -0.54, P -0.22, M -0.34, T -0.02, N 0.19
N79: D -0.24, W -1.05, C 0.15, V 0, P 0, R -0.8, L -0.15, F -0.85, S -0.15, K -0.4, Q 0.29, E 0.06, M -0.67, Y -0.74, H -0.33, T -0.23, I -0.01, A 0.21, G 0.06
R91: K 0.34, E -0.8, H 0, M -1.94, I -1.85, A -0.38, L -1.93, G -0.52, F -1.71, D -1.32, C -0.72
I86: K -0.65, N -0.75, T -0.15, R -0.77, Y -0.61, M -0.18, A -0.08, H -1.91, S -0.98, F -0.48, P -0.94, D -0.79, W -2.19, V 0.32, G -0.59, C -0.24, Q -0.24, L -0.35, E -0.39
W87: H -0.27, E -0.7, S 0.18, C -0.23, Y 0, D 0.08, I 0.48, V -0.45, G -0.12, A -0.18, P -0.55, T -0.05, M 0.4, L -0.04, N 0.58, K 0.25, R -0.12, F 0.33, Q 0.02
A76: Q 0.3, M -0.23, K -0.81, S 0.05, E 0.02, I 0.22, T -0.35, F 0.33, P -0.1, Y 0.25, R -0.35, C 0.13, N 0.08, L 0.08, D -0.4, H -0.07, V 0, W 0.14, G -0.2
I90: Y -1.02, V 0.01, A 0.12, C 0.33, G -0.76, T 0.06, D -0.63, L 0.26, E -1.22, W -0.2, Q -0.71, H -1.82, M -0.16, S -0.35, F -1.5, N 0.07, P -1.1, K 0.13, R -0.63
L75: A -0.22, D -0.31, F 0.18, I 0.09, V -0.01, C -0.06, M 0.77, R -0.32, T 0.27, Y -0.25, W 0.39, H 0.2, Q -0.18, S 0.09, P 0, G -0.34, N -0.4, E -0.08, K 0.2
